Results reported in IntAct's records for PubMed 26160948.

B1: Insulin-induced gene 2 protein (Homo sapiens), Q9Y5U4 (parent)
chain: MAEGETESPGPKKCGPYISSVTSQSVNLMIRGVVLFFIGVFLALVLNLLQIQRNVTLFPPDVIASIFSSAWWVPPCCGTASAVIGLLYPCIDRHLGEPHKFKREWSSVMRCVAVFVGINHASAKVDFDNNIQLSLTLAALSIGLWWTFDRSRSGFGLGVGIAFLATVVTQLLVYNGVYQYTSPDFLYVRSWLPCIFFAGGITMGNIGRQLAMYECKVIAEKSHQE
partner: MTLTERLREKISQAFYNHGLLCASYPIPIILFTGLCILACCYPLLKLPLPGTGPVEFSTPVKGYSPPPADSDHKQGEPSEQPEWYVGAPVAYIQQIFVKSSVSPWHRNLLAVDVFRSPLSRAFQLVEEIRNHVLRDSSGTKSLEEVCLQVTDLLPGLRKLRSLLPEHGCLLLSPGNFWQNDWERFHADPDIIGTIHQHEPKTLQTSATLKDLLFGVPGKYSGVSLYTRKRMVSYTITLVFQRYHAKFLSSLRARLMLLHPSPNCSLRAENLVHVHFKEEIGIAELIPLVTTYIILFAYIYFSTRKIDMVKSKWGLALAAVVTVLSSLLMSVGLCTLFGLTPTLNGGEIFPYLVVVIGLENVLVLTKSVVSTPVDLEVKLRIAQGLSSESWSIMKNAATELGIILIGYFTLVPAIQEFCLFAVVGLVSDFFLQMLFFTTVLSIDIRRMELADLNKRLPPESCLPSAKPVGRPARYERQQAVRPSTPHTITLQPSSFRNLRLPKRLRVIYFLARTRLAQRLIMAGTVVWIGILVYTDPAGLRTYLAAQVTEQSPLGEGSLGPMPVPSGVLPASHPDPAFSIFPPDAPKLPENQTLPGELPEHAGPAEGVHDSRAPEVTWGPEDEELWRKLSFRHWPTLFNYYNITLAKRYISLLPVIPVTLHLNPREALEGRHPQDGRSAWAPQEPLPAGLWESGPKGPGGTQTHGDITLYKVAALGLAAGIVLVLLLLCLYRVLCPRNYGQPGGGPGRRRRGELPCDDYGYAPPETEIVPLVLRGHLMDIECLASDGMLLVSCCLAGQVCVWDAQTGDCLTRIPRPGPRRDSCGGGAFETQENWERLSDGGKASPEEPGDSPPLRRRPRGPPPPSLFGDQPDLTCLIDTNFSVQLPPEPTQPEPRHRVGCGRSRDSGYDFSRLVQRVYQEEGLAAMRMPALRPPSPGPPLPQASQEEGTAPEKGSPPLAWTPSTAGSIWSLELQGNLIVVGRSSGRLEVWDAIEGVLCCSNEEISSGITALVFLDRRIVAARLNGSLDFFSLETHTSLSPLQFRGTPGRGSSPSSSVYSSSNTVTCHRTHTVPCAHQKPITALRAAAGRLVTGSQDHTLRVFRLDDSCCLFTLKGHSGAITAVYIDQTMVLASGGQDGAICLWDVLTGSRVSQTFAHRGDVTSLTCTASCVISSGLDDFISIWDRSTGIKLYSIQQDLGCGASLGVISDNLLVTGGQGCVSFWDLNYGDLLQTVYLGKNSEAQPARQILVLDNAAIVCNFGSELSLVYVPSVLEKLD

Variants of: B1
Conditions: with scap_mouse Scap

Row | Variant | effect of a mutation on the interaction
1 | G39F | decreasing interaction strength
2 | A113W | disrupting interaction strength
3 | C77D | decreasing interaction strength
4 | G117F | decreasing interaction strength
5 | N47A;Q50F;N119F | decreasing interaction strength
6 | F115A | disrupting interaction strength

More lines, now with the values ahead:

Row | effect of a mutation on the interaction | Variant
7 | disrupting interaction strength | W145A
8 | disrupting interaction strength | H120F
9 | decreasing interaction strength | G200F
10 | disrupting interaction strength | D149A
11 | decreasing interaction strength | M203W
12 | decreasing interaction strength | Q132A
